Key:
[1] = tested on: K5 mutant ZFP (VSSR-DGAV-VSSR-VDYK-Gal4AD) N80A (Asn DNA-contacting residue of finger 2, DGNV to DGAV; position counted in SEQ 225) (Artificial Sequence); experiment: EMSA; details: at least 10-fold decrease in DNA-binding affinity for expected site; no ketoconazole resistance in yeast
[2] = tested on: K5 ZFP (VSSR-DGNV-VSSR-VDYK-Gal4AD) (Artificial Sequence); experiment: EMSA; details: reference for the mutant comparison; binding of parent K5 implied by gel shift; exact probe not given, degenerate expected site
K5 ZFP (VSSR-DGNV-VSSR-VDYK-Gal4AD) (Artificial Sequence), sequence (chain, as listed by the source): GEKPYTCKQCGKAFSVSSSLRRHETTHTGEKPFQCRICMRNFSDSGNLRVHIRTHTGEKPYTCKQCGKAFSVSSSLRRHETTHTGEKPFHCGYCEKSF

K5 mutant ZFP (VSSR-DGAV-VSSR-VDYK-Gal4AD) N80A (Asn DNA-contacting residue of finger 2, DGNV to DGAV; position counted in SEQ 225) (Artificial Sequence), sequence (chain, as listed by the source N80A): as the sequence (chain, as listed by the source) above, with N47A counted along it

KATGTDAACGTD (double strand) [K5 expected target site]
binding signal [1]: < 0.1 fold of K5
binding signal [2]: 1

Reference: patent US20030194727
